The series addresses OsHsfB4d (Oryza sativa (rice; cv. Zhonghua 11?), UniProt Q10KX8 1-305). Kind of series: EMSA; […], room temperature 20 min, […]; buffer, […]. The conditions noted are these: protein: recombinant; tags: 6xHis (pET-28a); chain copies: 3.

Chain of OsHsfB4d (Q10KX8 whole entry): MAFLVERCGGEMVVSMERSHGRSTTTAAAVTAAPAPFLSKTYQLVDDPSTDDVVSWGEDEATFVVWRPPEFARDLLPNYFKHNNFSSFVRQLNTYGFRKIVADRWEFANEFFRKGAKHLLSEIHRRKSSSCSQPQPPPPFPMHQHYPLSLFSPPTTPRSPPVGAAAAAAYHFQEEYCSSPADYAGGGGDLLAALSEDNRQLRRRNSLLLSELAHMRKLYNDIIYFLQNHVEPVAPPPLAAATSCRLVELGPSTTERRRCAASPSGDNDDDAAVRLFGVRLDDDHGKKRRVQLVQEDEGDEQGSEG

B1: 18.0-HSE (perfect HSE only) (dsDNA)
DNA 1: CTTGGAATAAGCTTCTAGAAACTTCCAGTTTG
DNA 2: CAAACTGGAAGTTTCTAGAAGCTTATTCCAAG
Consider B1, for which the binding result was “binds”.

B2: 18.0-HSE-mutant (Mu) (dsDNA)
DNA 1: CTTGGAATAAGCTTCTACAAACAATCAGTTTG
DNA 2: CAAACTGATTGTTTGTAGAAGCTTATTCCAAG
For the molecule B2, the binding result was “no binding”.
